Measured values as given in publication PMC5757783.

Molecular target: histone H2A-N38C (Xenopus laevis)
Assay: cross-linking

histone H2A-N38C (natural protein)
stoichiometry N: 2
